Results taken from patent US9073976B2, “ND2 peptides and methods of treating neurological disease” (NoNO Inc., priority 2010, dated 2015).
“Also recorded” adds a separate entry of the source. No end group written: not given here. *: point of attachment. Myristoyl = CCCCCCCCCCCCCC(=O)*

Experiments:
[1] = biological target: T1, Src 40-49 (Homo sapiens, UniProt P12931); test: Dot blot of ND2 constructs binding Src 40-49; conditions: FIG. 4A
T1 construct: KPASADGHRG
Description: (§1) We next examined the ability of the ND2 constructs to bind to a shorter version of the Src binding domain—Src 40-49 (FIGS. 4A, B). ND2 310-321, ND2 307-318, and ND2 310-318 were the top binders of Src 40-49 by dot blot analysis (FIG. 4A).

[2] = biological target: T2, Src 40-58 (Homo sapiens, UniProt P12931, A55V); test: Dot blot of GST-ND2 fragments probed with biotinylated Src 40-58; type: binding; conditions: GST-fusion proteins spotted 1-10 ug, biotinylated peptide ~15 ug/ml, 2 hours
T2 construct: KPASADGHRG P SAAFVPAA
Experimental: GST-fusion proteins were designed using different fragments of ND2 and expressed and purified using standard protocols. These purified proteins were spotted onto membranes for probing with biotinylated Src 40-58 peptide or a scrambled control peptide (sSrc 40-58). In general, 1-10 ug of peptide or recombinant protein was spotted onto nitrocellulose and dried overnight. Membranes were blocked with 5% milk for 1 h at room temperature, then incubated with biotinylated peptides (˜15 ug/ml) for 2 hours the washed using standard wash buffers. Bound probe was detected using a short incubation with streptavidin conjugated to horseradish peroxidase (SA-HRP) and standard detection reagents, predominantly chemiluminescence kits. […] Further GST-constructs were made to narrow the core Src binding regions (FIG. 2A). Dot blots were made with these constructs and tested for their ability to capture biotinylated Src 40-58 (FIG. 2B).
(§2) Further GST constructs were made to identify the amino acid sequences in ND2.1.4 responsible for binding to Src 40-58 (FIG. 3A). Although these sequences are minimally responsible for binding, sequences corresponding to ND2 these sequences as well as those flanking them could be used for inhibition of the Src-ND2 interaction. […] As before, interactions with all of the fragments were confirmed in an ELISA assay (FIG. 3C), and the top binders were ND2 310-321, ND2 289-309, ND2 299-318, ND2 307-321 and full length ND2. […] All fragments tested were able to bind Src40-58 more strongly than the negative control peptide sSrc 40-58.

[3] = biological target: T2, Src 40-58; test: ELISA of coated ND2 constructs with biotin-Src 40-58; type: binding; conditions: biotin-Src 40-58 at 6 uM
Experimental: GST-ND2, GST-ND2.1 or GST-ND2.1.4 were coated onto ELISA wells by incubating at the indicated concentration under standard conditions. Wells were blocked using 5% milk, and either biotin-Src 40-58 (FIG. 2C top) or biotin-sSrc 40-58 (bottom) were incubated at 6 uM.
as §2

[4] = biological target: T3, ND2 310-321 (Homo sapiens, UniProt P03891); test: Dot blot of Src fragments probed with biotinylated ND2 310-321; type: binding; conditions: FIG. 5A
T3 construct: 7; NVKMKWQFEHTK
Experimental: (§3) Src40-49-Tat indicate a fusion peptide in which the human HIV-1 tat protein transduction domain [[…]] […] (SEQ ID NO:10). […] The peptides were plated at a concentration of ˜5 uM.

[5] = tested on: PACAP-enhanced NMDA-evoked currents in CA1 neurons; test: Patch clamp of PACAP-enhanced NMDA-evoked currents in isolated CA1 neurons; type: cell-based, rat; conditions: PACAP 1 nM in patch pipette, peptide 6 mM, 25 to 30 minutes after PACAP
Description: Pituitary Adenylate Cyclase-activating Polypeptide (PACAP) selectively increases NMDA receptor mediated responses in rat neurons, and it is thought that this peptide is involved in the regulation of synaptic plasticity as well as both long term potentiation and depression. To examine the effect of ND2 310-321 and Src 40-49 on PACAP-enhanced NMDA-evoked currents, isolated CA1 neurons were subjected to a series of patch clamp experiments in the presence or absence of these peptides. […] ND2 310-321 can prevent PACAP-induced potentiation. Similar experiments were also performed using the Src-selective inhibitory peptide, Src(40-58) (14 mM), or the truncated peptide, Src(40-49) (6 mM). The responses prior to application of PACAP were normalized the responses at 25 to 30 minutes following application of PACAP. The bar graph indicates three groups of recordings from neurons and indicated the relative change in peak NMDAR currents under the three conditions. ND2 310-321, but not Src40-49, inhibits PACAP-enhanced NMDA-evoked currents. Thus, ND2 310-321 can be used to block PACAP enhanced NMDA-evoked signaling and can therefore be used in many neurological diseases and disorders associated with impaired with long term potentiation (e.g., aging, Alzheimer's, neurodegenerative diseases and neuronal disorders affect memory).

[6] = tested on: rats subjected to 3PVO; test: Three pial vessel occlusion (3PVO) model of stroke, infarct volume; type: in vivo, rat
Experimental: The efficacy of ND2 inhibitors in the treatment of stroke was examined using the three pial vessel occlusion (3PVO) model of stroke. This is a permanent model of stroke that creates small but consistent infarcts at 24 hours.
Male Sprague Dawley rats (n=10 in each group) were surgically subjected to permanent occlusion of the pial vessels. One hour post-surgery, animals were given an intravenous injection of Saline, Tat-NR2B9c (Aarts et al, Science, 2002), Src 40-49-Tat or Tat-ND2 310-321 and allowed to further recover in their cages. 24 hours after surgery, brains were harvested, sliced and incubated with TTC to visualize the areas of infarction. The infarct volume of each animal was determined, as well as the average volumes for each group of ten.
Both peptides were myristoylated via an amide bond to the alpha-amino group of the N-terminal amino acid of the peptide.
Male Sprague Dawley rats (n=10 in each group) weighing between 230 and 290 g were used for this study. Experiments were performed on fasted rats (Free overnight access to water but not food). For permanent three pial vessel occlusion (3PVO) was performed as described previously (Forder J et al., 2005, supra). In brief, rats were anesthetized with a 0.5 ml/kg intramuscular injection of ketamine (100 mg/kg), acepromazine (2 mg/kg), and xylazine (5 mg/kg), supplemented with one-third of the initial dose as required. An anal temperature probe was inserted, and the animal was placed on a heating pad maintained at 37° C. The skull was exposed via a midline incision and scraped free of tissue. Using a dissecting microscope and a pneumatic dental drill, a 6- to 8-mm cranial window was made over the right somatosensory cortex (2 mm caudal and 5 mm lateral to bregma) by drilling a rectangle through the skull and lifting off the piece of skull while keeping the dura intact. The 3 pial arteriolar middle cerebral artery branches around the barrel cortex were selected and electrically cauterized through the dura. After the cauterizations, the scalp was sutured. […]

[7] = Arterial blood pressure after rapid high-dose intravenous bolus; conditions: ~25 mg/kg bolus injection into the tail vein
Experimental: Rats with surgically implanted devices to measure arterial pressure were dosed with ˜25 mg/kg of the respective peptides as a bolus injection into the tail vein at 10 minutes post monitoring.

[8] = biological target: T4, binding of biotinylated Src40-49 to ND2 310-321 (Homo sapiens, UniProt P03891+P12931); test: Competition ELISA, binding of biotinylated Src40-49 to coated ND2 310-321; conditions: FIG. 5D, FIG. 7
T4 construct: 7; NVKMKWQFEHTK; KPASADGHRG
Experimental: Competition ELISAs were also performed. […] In a similar manner, ND2 constructs bearing amino acid sequences from the 300-321 region are able to act as inhibitors of the interaction between ND2 and Src.

[9] = biological target: T5, Tat-ND2 310-321 (Homo sapiens, UniProt P03891); test: ELISA plate coated with Tat-ND2 310-321, binding of biotinylated Src peptides; conditions: FIG. 5C
T5 construct: 10; Tat-ND2 310-321; […]
Experimental: as §3

[10] = biological target: T6, ND2, Src, NMDAR subunits, and PSD95 in hippocampal neurons (Rattus norvegicus, UniProt P11662+Q9WUD9); test: Immunocytochemistry colocalization in 14DIV hippocampal neurons; type: cell-based; conditions: 1 uM peptide for 1 h, day 14 neurons
T6 construct: endogenous in cells; host or cells: primary hippocampal neurons from E17/E18 Wistar rats, 14 DIV
Experimental: A series of experiments was performed to examine the localization of ND2, Src, NMDAR subunits, and PSD95 in hippocampal neurons by immunocytochemistry in the presence of Tat, Tat-ND2 310-321, or Src 40-49-Tat. Briefly, hippocampal neurons were isolated from embryonic day #17/E18 Wistar rats, and cultured in neurobasal media containing coverslips with B27 and glutamax. Cells were then treated for 1 hr with luM peptide before fixing by standard methods. Proteins were visualized using specific antibodies and secondary antibodies coupled to fluorescent molecules. Colocalization of fluorescence was calculated by merging the images in Photoshop and calculating the % colocalized between pairs as the total colocalized fluorescence clusters divided by the total number of clusters (e.g., % colocalized ND2 with Src=(total colocalized)/(total ND2 clusters); % colocalized Src with ND2=(total colocalized)/(total Src clusters)).
Hippocampal neurons cultured on coverslips were treated with 1 uM of Src 40-49-Tat, Tat-ND2 310-321 or Tat for 1 h at the day 14. Then neurons were incubated in 4% paraformaldehyde and 4% sucrose in phosphate-buffered saline (PBS) for 10 minutes followed by 5 minutes […] at room temperature (RT). Cells were permeabilized with 0.25% Triton X-100 in PBS for 5 minutes and by treatment with 5% donkey serum in PBS for 30 minutes at RT. The cultures were incubated with a mixture of the primary antibodies, raised in various species, in 0.25% Triton X-100 PBS for 2 hours at RT, washed, and incubated for 1 hour at RT with a mixture of species-specific secondary antibodies all raised in donkey and conjugated to either Texas Red, or FITC fluorophores (1:200 dilution in 0.25% Triton X-100 PBS). The coverslips were washed with PBS and mounted using ProLong Gold antifade reagent (Invitrogen). Images were collected using a 60× pan-fluor objective on a Nikon Eclipse TE 200 microscope. The images were analyzed with PhotoShop 7 (Adobe, San Jose, Calif.). Brightness and contrast were adjusted, sharpened using the unsharpen mask tool, and the images were merged for color colocalization.
For quantification of the colocalization, the maximum intensities of the fluorophore channels were normalized and the background fluorescence of each channel seen in the dendrites was subtracted, the color images were merged. Two clusters in two different channels were considered colocalizing when at least 66% of the surface of one clusters in one of the two channels overlapped with a clusters in the other channel. For each combination of antibodies, three independent immunofluorescence experiments were done. Each measurement was taken from a 50-m-long dendritic segment (with an average width of 2 m). Colocalization was expressed as the percent of the total clusters analyzed.

[11] = biological target: T1, Src 40-49; test: ELISA of ND2 constructs binding Src 40-49; conditions: FIG. 4B
Description: as §1

## NVKMKWQFE [ND2 310-318]
[1]
  binding of Src 40-49 (dot blot): top binders; also recorded: strong binding

## NLYFYLRLIYSTSITLLPMSN [ND2 289-309]
[2]
  binding of biotinylated Src 40-58 (dot blot): binding was seen
[3]
  binding of biotin-Src 40-58 (ELISA): top binders

## KPASADGHRG [Src40-49]
[4]
  binding of biotinylated ND2 310-321 (dot blot): bound ND2 310-321
[5]; listed as Src 40-49
  effect on PACAP-enhanced NMDA-evoked currents: does not

## ITLLPMSNNVKMKWQFEHTK [ND2 302-321]
[2]
  binding of biotinylated Src 40-58 (dot blot): binding was seen

## YGRKKRRQRRRKLSSIESDV [Tat-NR2B9c]
[6]; 3 nmol/g intravenous one hour post-surgery, 24 hours after surgery, n=10
  decline in infarct volume: approximately 40%
[7]
  mean arterial blood pressure after bolus: about one half of normal

## YGRKKRRQRRRNVKMKWQFEHTK [Tat-ND2 310-321]
[7]
  mean arterial blood pressure after bolus: about one half of normal

## STSITLLPMSNNVKMKWQFE [ND2 299-318]
[2]
  binding of biotinylated Src 40-58 (dot blot): binding was seen
[3]
  binding of biotin-Src 40-58 (ELISA): top binders

## YGRKKRRQRRRKPASADGHRG [Tat-Src40-49]
[4]
  binding of biotinylated ND2 310-321 (dot blot): bound ND2 310-321
[8]
  inhibition of binding of biotinylated Src40-49 to ND2 310-321 (competition ELISA): inhibited

## myristoyl- MSNNVKMKWQFEHTK (Myristoyl-MSNNVKMKWQFEHTK) [Myr2-ND2]
[6]; given intravenously 1 hour after onset of stroke, relative to Tat-ND2
  protection against damage from the stroke, second experiment (FIG. 22): equivalent or superior protection

## Bio-sSrc 40-49: biotinylated scrambled control peptide (GAAKRPSDGH; also: biotinylated, position not given here)
[9]
  binding to coated Tat-ND2 310-321 (ELISA): no binding was seen

## MSNNVKMKWQFE [ND2 307-318]
[1]
  binding of Src 40-49 (dot blot): top binders; also recorded: strong binding

## bio-Src 40-49: biotinylated Src 40-49 peptide (KPASADGHRG; also: biotinylated, position not given here)
[9]
  binding to coated Tat-ND2 310-321 (ELISA): able to bind in a concentration dependent manner

## YGRKKRRQRRR [Tat]
[10]
  colocalization of Src and ND2: does not

## MSNNVKMKWQFEHTK [ND2 307-321]
[2]
  binding of biotinylated Src 40-58 (dot blot): binding was seen
[3]
  binding of biotin-Src 40-58 (ELISA): top binders

## NVKMKWQFEHTK [ND2 310-321]
[2]
  binding of biotinylated Src 40-58 (dot blot): binding with high relative affinity
[3]
  binding of biotin-Src 40-58 (ELISA): top binders
[1]
  binding of Src 40-49 (dot blot): top binders; also recorded: strong binding
[11]
  binding of Src 40-49 (ELISA): strongest binding
[5]
  effect on PACAP-enhanced NMDA-evoked currents: inhibits

## NLYFYLRLIYSTSITLLPMSNNVKMKWQFEHTK (not fully specified) [ND2.1.4, GST-fusion protein of ND2 fragment AA 289-321]
[2]
  binding of biotinylated Src 40-58 (dot blot): most effective sub fragment for binding Src 40-58
[2]; listed as ND 2.1.4
  binding of biotinylated Src 40-58 (dot blot): better than ND2.1.3
[3]
  binding of biotin-Src 40-58 (ELISA): concentration-dependent manner

B1: ND2.1: GST-fusion protein of ND2 sub fragment AA239-321 (protein)
chain: WLTPLIPSTLLSLGGLPPLTGFLPKWAIIEEFTKNNSLIIPTIMATITLLNLYFYLRLIYSTSITLLPMSNNVKMKWQFEHTK
modifications: left off: a dimerising Fc or GST
[2]
  binding of biotinylated Src 40-58 (dot blot): can also bind Src 40-58; also recorded: better than ND2.1.3
[3]
  binding of biotin-Src 40-58 (ELISA): concentration-dependent manner
